{
  "source": "patent US20260000736A1",
  "about": "“PURIFIED LACTOFERRIN COMPOSITIONS AND METHODS OF USE” (Lactea Therapeutics LLC, priority 2023, published 2026)",
  "key": {"Enterobacter cloacae": {"test_system": "Enterobacter cloacae", "assay": "Biofilm formation, crystal violet assay", "type": "cell-based", "details": "24 hours of growth"}, "E. coli 0157": {"test_system": "E. coli 0157", "assay": "Bacterial growth timecourse, OD600", "type": "cell-based", "details": "1 mg/mL; for Bacterial Growth Timecourse, Replicate 1 / Bacterial Growth Timecourse, Replicate 2 / Bacterial Growth Timecourse, Replicate 3: OD600 relative to no treatment control at 24 hours", "description": "For a more detailed comparison of Lactea-Lf antimicrobial activity relative to the Sigma Aldrich Lactoferrin, Lactea-Lf and Sigma Aldrich Lactoferrin were incubated at 1 mg/mL with for E. coli 0157 in LB seeded at 10∝CFU/mL. […] Results were quantified and reported as a percent of the OD600 of the no treatment control at 24 hours for all timepoints."}},
  "data": [
    {"molecule": "Lactea-Lf: bovine lactoferrin purified from raw untreated milk by cation exchange chromatography and filtration according to Example 1 (protein) APRKNVRWCTISQPEWFKCRRWQWRMKKLGAPSITCVRRAFALECIRAIAEKKADAVTLDGGMVFEAGRDPYKLRPVAAEIYGTKESPQTHYYAVAVVKKGSNFQLDQLQGRKSCHTGLGRSAGWVIPMGILRPYLSWTESLEPLQGAVAKFFSASCVPCIDRQAYPNLCQLCKGEGENQCACSSREPYFGYSGAFKCLQDGAGDVAFVKETTVFENLPEKADRDQYELLCLNNSRAPVDAFKECHLAQVPSHAVVARSVDGKEDLIWKLLSKAQEKFGKNKSRSFQLFGSPPGQRDLLFKDSALGFLRIPSKVDSALYLGSRYLTTLKNLRETAEEVKARYTRVVWCAVGPEEQKKCQQWSQQSGQNVTCATASTTDDCIVLVLKGEADALNLDGGYIYTAGKCGLVPVLAENRKTSKYSSLDCVLRPTEGYLAVAVVKKANEGLTWNSLKDKKSCHTAVDRTAGWNIPMGLIVNQTGSCAFDEFFSQSCAPGRDPKSRLCALCAGDDQGLDKCVPNSKEKYYGYTGAFRCLAEDVGDVAFVKNDTVWENTNGESTADWAKNLNREDFRLLCLDGTRKPVTEAQSCHLAVAPNHAVVSRSDRAAHVKQVLLHQQALFGKNGKNCPDKFCLFKSETKNLLFNDNTECLAKLGGRPTYEEYLGTEYVTAIANLKKCSTSPLLEACAFLTR", "values": [
      {"measurement": "Inhibition of Biofilm Formation", "setting": "Enterobacter cloacae", "value": "Strong (Lf was deemed to have a strong activity if biofilms were eliminated or significantly reduced to less than 90% less than no treatment at concentrations of 10 mg/mL or less after 24 hours of growth)"},
      {"measurement": "inhibition of bacterial growth over time", "setting": "E. coli 0157; E. coli 0157 in LB", "value": "near complete inhibition of bacterial growth up to 18 hours"},
      {"measurement": "time at which bacterial growth became observable / evident", "setting": "E. coli 0157; E. coli 0157 in LB", "value": 21, "unit": "h"},
      {"measurement": "Bacterial Growth Timecourse, Replicate 1", "setting": "E. coli 0157; 3 h", "value": "−0.00372"},
      {"measurement": "Bacterial Growth Timecourse, Replicate 2", "setting": "E. coli 0157; 3 h", "value": "−0.00129"},
      {"measurement": "Bacterial Growth Timecourse, Replicate 3", "setting": "E. coli 0157; 3 h", "value": 0.02246},
      {"measurement": "Bacterial Growth Timecourse, Replicate 1", "setting": "E. coli 0157; 6 h", "value": 0.007916},
      {"measurement": "Bacterial Growth Timecourse, Replicate 2", "setting": "E. coli 0157; 6 h", "value": 0.01196},
      {"measurement": "Bacterial Growth Timecourse, Replicate 3", "setting": "E. coli 0157; 6 h", "value": 0.03279},
      {"measurement": "Bacterial Growth Timecourse, Replicate 1", "setting": "E. coli 0157; 9 h", "value": 0.01583},
      {"measurement": "Bacterial Growth Timecourse, Replicate 2", "setting": "E. coli 0157; 9 h", "value": 0.02246},
      {"measurement": "Bacterial Growth Timecourse, Replicate 3", "setting": "E. coli 0157; 9 h", "value": 0.02019},
      {"measurement": "Bacterial Growth Timecourse, Replicate 1", "setting": "E. coli 0157; 12 h", "value": 0.04443},
      {"measurement": "Bacterial Growth Timecourse, Replicate 2", "setting": "E. coli 0157; 12 h", "value": 0.04136},
      {"measurement": "Bacterial Growth Timecourse, Replicate 3", "setting": "E. coli 0157; 12 h", "value": 0.02633},
      {"measurement": "Bacterial Growth Timecourse, Replicate 1", "setting": "E. coli 0157; 15 h", "value": 0.04976},
      {"measurement": "Bacterial Growth Timecourse, Replicate 2", "setting": "E. coli 0157; 15 h", "value": 0.05816},
      {"measurement": "Bacterial Growth Timecourse, Replicate 3", "setting": "E. coli 0157; 15 h", "value": 0.04685},
      {"measurement": "Bacterial Growth Timecourse, Replicate 1", "setting": "E. coli 0157; 18 h", "value": 0.04152},
      {"measurement": "Bacterial Growth Timecourse, Replicate 2", "setting": "E. coli 0157; 18 h", "value": 0.0399},
      {"measurement": "Bacterial Growth Timecourse, Replicate 3", "setting": "E. coli 0157; 18 h", "value": 0.04281},
      {"measurement": "Bacterial Growth Timecourse, Replicate 1", "setting": "E. coli 0157; 21 h", "value": 0.1997},
      {"measurement": "Bacterial Growth Timecourse, Replicate 2", "setting": "E. coli 0157; 21 h", "value": 0.1696},
      {"measurement": "Bacterial Growth Timecourse, Replicate 3", "setting": "E. coli 0157; 21 h", "value": 0.106},
      {"measurement": "Bacterial Growth Timecourse, Replicate 1", "setting": "E. coli 0157; 24 h", "value": 0.3648},
      {"measurement": "Bacterial Growth Timecourse, Replicate 2", "setting": "E. coli 0157; 24 h", "value": 0.2898},
      {"measurement": "Bacterial Growth Timecourse, Replicate 3", "setting": "E. coli 0157; 24 h", "value": 0.2034}
    ]}
  ]
}
